According to publication PMC1075921 (Nucleic Acids Research, 2005):

Molecular target: transactivation domain of human p53 (residues 1–73) (human, UniProt P04637 1-73, R72)
Test: NMR titration

B1: hRPA70_(1–168) Y118A mutant (domain or fragment)
chain: MVGQLSEGAIAAIMQKGDTNIKPILQVINIRPITTGNSPPRYRLLMSDGLNTLSSFMLATQLNPLVEEEQLSSNCVCQIHRFIVNTLKDGRRVVILMELEVLKSAEAVGVKIGNPVPANEGLGQPQVAPPAPAASPAASSRPQPQNGSSGMGSTVSKAYGASKTFGKA
mean intensity ratio (free/with partner) of p53TAD residues 42–56: 35 ± 34

B2: hRPA70_(1–168) R41E mutant (domain or fragment)
chain: MVGQLSEGAIAAIMQKGDTNIKPILQVINIRPITTGNSPPEYRLLMSDGLNTLSSFMLATQLNPLVEEEQLSSNCVCQIHRFIVNTLKDGRRVVILMELEVLKSAEAVGVKIGNPVPYNEGLGQPQVAPPAPAASPAASSRPQPQNGSSGMGSTVSKAYGASKTFGKA
intensity ratio (free/with partner) of all p53TAD residues except I50-F54: < 2 | mean intensity ratio (free/with partner) of p53TAD residues I50-F54: 3.3 ± 1.7
